# Source: the DeepSol protein solubility set
# Assay: soluble on expression in E. coli; label from the status in PepcDB or PDB records
row,Sequence,soluble on expression in E. coli
1,MNNIDQLYTETKSMLSHIQNTPESDELLKQIEDFVATRSELIQEISLPLSEEERKQMKLILTWDQLIVKEMERLKQSIATELQQMKRKRVMHTTYLNPYNNITIDGTYYDKRKLEHHHHHH,soluble
2,MNNLISQDKRISSNPVAKIIYGDPVTFLPHLPRKSVVHCSKIWSCRKRITVEYLQHIVEQKNGKERVPILWHFLQKEAELRLVKFLPEILALQRDLVKQFQNVQQVEYSSIRGFLSKHSSDGLRQLLHNRITVFLSTWNKLRRSLETNGEINLPKDYCSTDLDLDTEFEILLPRRRGLGLCATALVSYLIRLHNEIVYAVEKLSKENNSYSVDAAEVTELHVISYEVERDLTPLILSNCQYQVEEGRETVQEFDLEKIQRQIVSRFLQGKPRLSLKGIPTLVYRHDWNYEHLFMDIKNKMAQDSLPSSVISAISGQLQSYSDACEVLSVVEVTLGFLSTAGGDPNMQLNVYTQDILQMGDQTIHVLKALNRCQLKHTIALWQFLSAHKSEQLLRLHKEPFGEISSRYKADLSPENAKLLSTFLNQTGLDAFLLELHEMIILKLKNPQTQTEERFRPQWSLRDTLVSYMQTKESEILPEMASQFPEEILLASCVSVWKTAAVLKWNREMR,not soluble
3,MNNLLRCHQVCKTYQEGELQTQVLKGVSFELKRGELVSIIGSSGSGKSTLLHILGALDDASEGQVEFLGQSLHQLSSNKQAKIRNQHLGFVYQFHHLLADFSALENVAMPLLIGGMNVAKAKAKAQSLLERVGLGHRVAHRPSELSGGERQRVAIARALVNKPDLVLADEPTGNLDHKTALSIYDLMRELNRESGTAFLVVTHDGELAAKMDRHMHMKDGLLTDITGA,not soluble
4,MNNPKAISKQTLLRLPSYLSYLKSLPKQDGEYVSATMIASALGLNDVQVRKDLACVSKKGRPKLGYVAEELIRDIESFLGYDSLNDAIIVGAGRLGGALLSYEGFKEYGLNIVAAFDIDESKIGTEICGRKIFPLDKMKELCRRMKIRIGIITVPADSAQKVCDMLVDSGIYAIWNFAPVHLKVPDNILVQQENMAASLAVLSAHLAEAIKNNGIGKGDEENDENSE,not soluble
5,MNNPVVLDSKTELNEQTAQDVRLQLRQDADVQRIYNAVDIKDQLELIELGKEPSMEISRFADQILHTMSLSKIEDSGELLKQLGKIMDRFDSKDFAEEKSGFFSRMFKKADKMIEQIFSKYQTMGREIDKVYVEITKYQDEMKKSIGTLDGLYEQNLKYYLDLEKYVVAGEMLLERLNTELVPMYEERVRNNDQLAGIELESLKNSVEILEQRIDDLEKARMVALLTAPQIRMIQRGNNKLIGKINTAFITTIPIFKNGIIQAVNAKRQKLVADSMAELDRRTNELLKKNAQNIATQSVEVARLSGSSSIKMETLEETWNIISRGMQETQQIEEQNKREREESRKRMATLTENIKKELQG,not soluble
6,MNNVLILLDNPDDWKPYCETKSILTVSDYLKNKPVEKDRKLVINLSNDYSYNSEGYYCSLLAQTRGQRVIPDVDIINKLETGTGIRMDRSLQALCYQWIQKNGIKSDIWYLNIYFGKCREKGLERVARFIFENYPCPLLRVALNTHPKNQIESIQFLPLNRLDDEEQDFFANTLDNFNKKIWRAPKSAKAPRYSLAVLIDPKEKFPPSNKGALHKLSEVAKKMNIHVEMITEDDAMRLLEFDALFIRTTTSLNHYTFHLSQLAAQNGMVVIDDPLSIIRCTNKVYLKELFEKERIPAPKSTLIFQSNENSFEQISEQVGAPFILKIPDGSYSIGMKKVSNEEELKTSLELLFEKSAILLAQAFTPTEFDWRVGLLNGVPLYACKYYMAKGHWQIYCHYDSGRSRCGLVDTIPIYQVPRVVLDTAIKAANLIGKGLYGVDLKMVDDKAYVIEINDNPSIDHELEDAIIGDEMYYRLLNHFEQALEMKHY,not soluble
7,MNPAPERTVMQHVRPLPYEADFTGFLSNTVAPRWMEALRIQRMRTCFPHFDSGAPQHLCIITETTVRYRKPVRYSDAIVGKAWLQSARYSRWIIAFSFAFEFSGLPAFEGRQAGTFIDPLEHHHHHH,not soluble
8,MNPDHKEIIMNHIGLFALTAAALLAGCSSNTQQDNYREASFELCNTEVNIYSVSDDGQVRIVCADGAKFALKTEKTLDIMRDINVDYCDGEGLGKFTESNKYYMFKCKSGTMISVSK,not soluble
9,MNPDNLAKLIDELSAMFHPTERDRPHGRWVEAPKSAPPSKRRRSKTAYQLKITLNGIRPPIWRRVLVPGHATFHELHLIIQEAMGWEQAHLYEFDFGSVLIGIPDGWDSFQLEKELMDARRIPLQQWLTEEKQKFLYIYDFGDYWRHTVTVEKIETLPKPLERAACLKGKRACPPEDCGGVYGYLELLEAAAQKDSLADPELRELVDWMYDMKGEDFDPDAFDVEEANERLAYIRL,not soluble
10,MNPISRVAIIGECMVELKKHDGVLQQGFGGDTLNTAVYLSRLTKQHGVETSYVTGLGHDPFSREMLTAWREEGINTDMVYLSEDKLPGIYAIETAEDGERSFFYWRNDAAAKYWLRERALLSLVKDLCQHQMIYLSGISLAIISDDCRQMLIELLTMCRKEGVKIAFDNNFRPKLWPNIEQARDFYSKILSVTDMAFLTFDDEVMLWGDKHE,not soluble
11,MNPLEAVEHQGGLQLSTPPYEIAVDQKCYWRNQPIGLTLQGHNESIWFKGFVIQPFKWNNDQLGERFGQLVRLDDNGSWQQQCFRYQVSATHSHDEKKKHIKMWWKVDDEVDTVQFVATVVKHQTQFWVKSVRSRPLPPCRLNRDGFPNYQAPVPQIPPQVKQFKMETFKVFDSIVRRRPFNH,not soluble
12,MNPLKAGDIAPKFSLPDQDGEQVNLTDFQGQRVLVYFYPKAMTPGCTVQACGLRDNMDELKKAGVDVLGISTDKPEKLSRFAEKELLNFTLLSDENHQVCEQFGVWGEKSFMGKTYDGIHRISFLIDADGKIEHVFNDFKTSNHHDVVLNWLKENA,not soluble
13,MNQAWQSQLPLSHIKNIVPVSGGDVNDAFRIETDQEDYFLLVQRKRKSTFFDAEIAGLNLFEKVGITAPRVIDSGEIEDDAYLLLTYLDEGVSGSQEALGQLVARMHSEQQADNQFGFDLPYEGGDISFDNSWTNSWITLFVEKRLDKLKDRLVQQGLWGDADVTQYQAVRRVIVNELESHNSKPSLLHGDLWGGNYMFLTDGSPALFDPAPLYGDREFDIGITSVFGGFTQAFYDAYHKHYPLSEGADVRLEFYRLYLLMVHLVKFGEMYAGSVDRSMQKILNQLEHHHHHH,soluble
14,MNQIDTGLVKRLIREQFPEWAHLEVKPVKFSGHDNRTFQLGDKMSVRLPSDAAYTPQVEKENKWLPILSKELSLPISTPIAKGNPSEAYPWPWSINKWIEGETVTKQNVRDLSEFAAHLGSFLVELQSIDASKGPIAGAHNFYRGGLISVYDEEARDAIENNKDVFDETVLKHLWDLALQSTWRRKPVWIHGDVAPGNLLVKDGKLCAVIDFGILGVGDPACDAAMSWTFFDKSSRKIFKEVLQIDEETWNRARGWALWKALITYDANKISNKIVAEESYRVIQVIVNDYGR,not soluble
15,MNQTKLNQRLKQQQLFDIYGELLTKRQACYFNEYINLDLSMQEIADKYQVKKSSIHQHIKTCNLIFNRFEAKLQLFKKQQLRLKLYEKITDPQLREQLIKLR,soluble
16,MNQYPDFDQKLYDDLRRGKEYAFAAVFDRYHRLLYTIAYRFLKSEEEAEDAVQYLFMKLWEQRETFSFESGIRSLLFTILKNYILNELRHRNLVFEKLYEMAQQVNDEDEDAFLTRFEHGELRKSLRVAIDKLPPQKQKICLLKIEYGLSNQEIADRMGITVPTVKSHYTQAIKALRNAIESLIMWFPVIWIYLID,not soluble
17,MNRIKEVLEEKGIKQTWLAEKLGKSFSIVNSYVCNRRQPSLDILFEIAKILEVDVRVLIGTKENRQKSK,not soluble
18,MNRILLYVHFNKYNKISAHVYYQLEQMRSLFSKIVFISNSKVSHEDLKRLKNHCLIDEFLQRKNKGFDFSAWHDGLITMGFDKLEEFDSLTIMNDTCFGPIWEMAPYFENFEEKKAVDFWGITNNRGTKAFKEHVQSYFMTFKNQVIQNKVFQQFWQSIIEYENVQEVIQHYETQLTSILLNEGFSYQTVFDTRKAESSFMPHPDFSYYNPTAILKHHVPFIKVKAIDANQHIAPYLLNLIRETTNYPIDLIVSHMSQISLPDAKYLLSQKYLNCQRLAKQTCQKVAVHLHVFYVDLLDEFLTAFEDWNFHYDLFITTDSDIKRKEIKEILQRKGKTADIRVTGNRGRDIYPMLLLKDKLSQYDYIGHFHTKKSKEADFWAGESWRKELIDMLVKPADSILSAFETDDIGIIIADIPSFFRFNKIVNAWNEHLIAQEMMSLWRKMDVKKQIDFQAMDTFVMSYGTFVWFKYDALKSLFDLELTQNDIPSEPLPQNSILHAIERLLVYIAWGNSYDFRILEHHHHHH,not soluble
19,MNRLQGMELFVEVARTLSFGRAAENLAIPKSTLSRQVAELERSVGLRLLSRTTRRVELTEAGQLYFERCQRIVAEARIAHEELQNLVETPSGPLRVNMPADFGTDFLSEAFTEFSRRYPEVTFYLDLASPEHAERVFQTCDVSIEIGDLPDSTHIARLLGVLPAHLYASPDYLARHGEPQHPDDLPRHECIQFRAGTGRVTRWPLNSGERHVEITPGNRFSVNSVSMVRNLATLGAGIAILAPMGNVREDIESGRLKRILPDWLAGPFPVYAVTDTRMLPAKTRIFVEFLMERLSNKTLAGQNNPAFLNLR,not soluble
20,MNRLSIFVDGNNMFYAQQKNGWFFDPRRVLEYFKHEQSETTLINAFWYTGLKDPQDQRGFRDALISLGYTVRTKILKEYYDDTSGRYSQKANLDIEIVVDMFNTVDQYDRVVLFSGDGDFERAIELLRSKNTHITVVSTEGMIARELRNATDRYIDLNDIRDQIEKT,not soluble
21,MNRNKWQRVPAPNTRGAKMHGWVREMDEAYREVNGEYAVLVRTLNTKLGTVKHAAIRNATETDITWSEKQRIKNEIFGEEKQAIEFFPKQSELIDEANMYHLWILEDCELEFGIYE,not soluble
22,MNRREVRCAFSASKAARAQLLLRGKVRLEPLPTRPRTVLGLDASYSAKDGVGVGAAVLISLETLEPVDCRVYISRVCIPYIPGLLAFRELAVMAPAAAALSAEADVVMVDGHGIAHPRRFGIASHVGVILERPSIGVAKKKLVGTLVEGPGGMYVVQDGERLAIVLGTRPREVYVSPGHRITLEEAASIARATIRPGGWMPEPTRLADVISKALKTIIGGQSLINSALASLCRVKLGPRLEELERPLRRAGLEVELEHHHHHH,not soluble
23,MNRTAMRASQKDFENSMNQVKLLKKDPGNEVKLKLYALYKQATEGPCNMPKPGVFDLINKAKWDAWNALGSLPKEAARQNYVDLVSSLSPSLESSSQVEPGTDRKSTGFETLVVTSEDGITKIMFNRPKKKNAINTEMYHEIMRALKAASKDDSIITVLTGNGDYYSSGNDLTNFTDIPPGGVEEKAKNNAVLLREFVGCFIDFPKPLIAVVNGPAVGISVTLLGLFDAVYASDRATFHTPFSHLGQSPEGCSSYTFPKIMSPAKATEMLIFGKKLTAGEACAQGLVTEVFPDSTFQKEVWTRLKAFAKLPPNALRISKEVIRKREREKLHAVNAEECNVLQGRWLSDECTNAVVNFLSRKSKL,not soluble
24,MNRTLPLLPALALGVLLGLPASGQATCYRVTSVGSETTTSNTQIRPGEGTAGSWTGACDTCNGSLGLPSVVNVSDESFQPYPTLIASAVAPLTQYGATGGYDPERVFFRCSAGDAVYEMFSTNGDDLYSGYYTGADTVGNDIGLQDAYRTAWPNVLLRLTNVETGETITPIWKERQLSGLDIDSRGFQLVKAKNLAAVRAELYSAPLEAIRYYSPTILSQPYSYTQPAAYIAIKGPGLTAPTVGQAHVGGNWGGWYSNWPGAIGLYRYVTLKRYPTCAVMTVTPHVQFPSITLAEIDSGGVREAPFELTFKCQSGMTNGTGAGATALGIRVSSGALAASPALGLVNASGGLSYLLSDRYGEPGIARGVGIRIYRDGTPMTLLANENSAGGSNAEATGWYPAIGGATQANGGSGGIDLYRETFRARLEKLALGSQPGVTAGRVEATAQVVIRVQ,not soluble
